Source: article PMC7873624 (Journal of molecular biology, 2020)

Columns and labels:
[1] = molecular target: recombinant USP7 TRAF domain (residues 62–205) (UniProt Q93009 62-205); experiment: ITC
[2] = molecular target: recombinant USP7 UBL1-2 (residues 535–775) (UniProt Q93009 535-775); experiment: ITC
recombinant USP7 UBL1-2 (residues 535–775), sequence (Q93009 535-775): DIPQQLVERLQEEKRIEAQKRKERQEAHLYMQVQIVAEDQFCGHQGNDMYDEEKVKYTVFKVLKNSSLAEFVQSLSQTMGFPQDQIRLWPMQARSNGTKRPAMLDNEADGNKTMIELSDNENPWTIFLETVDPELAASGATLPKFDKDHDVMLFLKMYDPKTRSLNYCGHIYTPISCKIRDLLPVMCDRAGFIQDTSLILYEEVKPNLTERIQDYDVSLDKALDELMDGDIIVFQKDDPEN

recombinant USP7 TRAF domain (residues 62–205), sequence (Q93009 62-205): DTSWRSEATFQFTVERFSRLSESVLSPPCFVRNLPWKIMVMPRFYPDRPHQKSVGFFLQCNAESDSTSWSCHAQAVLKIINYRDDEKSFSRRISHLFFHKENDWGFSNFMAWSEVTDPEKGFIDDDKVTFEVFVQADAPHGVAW

Binder	Kd [1] [µM]	Kd [2] [µM]
SPCEPGTSGFN [Pol ι peptide 573–584]	4.8	–
SGKHSFKMKDT [Pol ι peptide 438–448]	–	169
